Data: patent publication US20250135022A1, “METHODS FOR THE USE OF A B7-H3 ANTIBODY-DRUG CONJUGATE IN COMBINATION WITH A PD-1 X CTLA-4 BISPECIFIC MOLECULE” (MACROGENICS, INC., priority 2022, published 2025)

Target: T1, B7-H3 of cynomolgus monkeys (Macaca fascicularis, UniProt A0A7N9CYV2)
T1 sequence (A0A7N9CYV2 29-534): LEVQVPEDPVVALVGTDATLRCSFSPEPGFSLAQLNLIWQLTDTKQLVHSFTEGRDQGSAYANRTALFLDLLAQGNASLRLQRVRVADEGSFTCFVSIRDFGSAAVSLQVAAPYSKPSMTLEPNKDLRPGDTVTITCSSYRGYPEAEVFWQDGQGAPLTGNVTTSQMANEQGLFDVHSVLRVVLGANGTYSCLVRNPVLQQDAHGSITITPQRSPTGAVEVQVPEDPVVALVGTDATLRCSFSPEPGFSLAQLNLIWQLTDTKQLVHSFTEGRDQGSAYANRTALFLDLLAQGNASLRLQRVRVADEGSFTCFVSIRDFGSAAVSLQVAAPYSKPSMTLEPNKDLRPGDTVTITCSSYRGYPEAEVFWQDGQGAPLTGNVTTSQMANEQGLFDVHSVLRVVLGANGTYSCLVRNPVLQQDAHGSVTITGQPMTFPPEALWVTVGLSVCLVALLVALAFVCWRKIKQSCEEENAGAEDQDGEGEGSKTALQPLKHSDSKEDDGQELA
Test: Cross-reactivity of anti-B7-H3 antibody
Format: binding

B1: mAb-A: anti-B7-H3 antibody isolated from hybridoma cells; murine VL SEQ ID NO:15, VH SEQ ID NO:16 (antibody, V domains shown)
VH: EVQQVESGGDLVKPGGSLKLSCAASGFTFSSYGMSWVRQTPDKRLEWVATINSGGSNTYYPDSLKGRFTISRDNAKNTLYLQMRSLKSEDTAMYYCARHDGGAMDYWGQGTSVTVSS
VL: DIQMTQSPASLSVSVGETVTITCRASESIYSYLAWYQQKQGKSPQLLVYNTKTLPEGVPSRFSGSGSGTQFSLKINSLQPEDFGRYYCQHHYGTPPWTFGGGTNLEIK
modifications: Synthetic: amino acid sequence of the VH Domain of anti-B7-H3 mAb-A; Synthetic: amino acid sequence of the VL Domain of the murine anti-B7-H3 antibody mAb-A
cross-reactivity with B7-H3 of cynomolgus monkeys: cross-reactive
